Data: article PMC10401628

Target: human α-synuclein E57K mutant (6xHis:α-Syn-E57K) (human) (UniProt P37840)

Chain of bacterial Hsp90 chaperone with C-terminal hexahistidine (Hsp90:6xHis) (P0A6Z3 whole entry): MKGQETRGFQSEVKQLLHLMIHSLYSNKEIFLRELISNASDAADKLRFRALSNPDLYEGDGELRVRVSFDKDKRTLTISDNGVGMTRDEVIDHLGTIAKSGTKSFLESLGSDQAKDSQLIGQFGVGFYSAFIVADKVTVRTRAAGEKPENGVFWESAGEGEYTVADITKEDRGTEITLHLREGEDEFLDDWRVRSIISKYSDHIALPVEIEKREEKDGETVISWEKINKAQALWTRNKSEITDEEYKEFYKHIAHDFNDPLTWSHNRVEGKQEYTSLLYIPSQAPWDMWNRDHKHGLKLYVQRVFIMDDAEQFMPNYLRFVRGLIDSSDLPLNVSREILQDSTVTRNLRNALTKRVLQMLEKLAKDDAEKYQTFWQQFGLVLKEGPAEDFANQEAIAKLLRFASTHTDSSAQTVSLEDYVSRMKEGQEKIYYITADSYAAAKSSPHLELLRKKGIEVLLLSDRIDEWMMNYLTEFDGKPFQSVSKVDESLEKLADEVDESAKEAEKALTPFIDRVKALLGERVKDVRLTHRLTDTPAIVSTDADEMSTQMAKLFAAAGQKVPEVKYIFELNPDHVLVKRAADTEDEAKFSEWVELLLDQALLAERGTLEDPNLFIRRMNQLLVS

insoluble fraction of α-Syn-E57K after incubation under amyloidogenic conditions with free Hsp90 (18.42% without Hsp90); centrifugation, SDS-PAGE, band quantification: 5.67%
Substance: bacterial Hsp90 chaperone with C-terminal hexahistidine (Hsp90:6xHis) (from UniProt P0A6Z3 1-624) (natural protein)
